Data on one substance can be found in patent US20250340653A1.

The target in this assay is Canine IL-31RA ECD-10His (canine). The assay can be described thus: ELISA, IL-31RA coated at 1 ug/mL, biotinylated IL-31 titrated, HRP-streptavidin. A general note: In an ELISA, binding on a coated surface is turned into a signal by an enzyme label.
Chain of Canine IL-31RA ECD-10His (canine) (chain, as listed by the source limits assumed): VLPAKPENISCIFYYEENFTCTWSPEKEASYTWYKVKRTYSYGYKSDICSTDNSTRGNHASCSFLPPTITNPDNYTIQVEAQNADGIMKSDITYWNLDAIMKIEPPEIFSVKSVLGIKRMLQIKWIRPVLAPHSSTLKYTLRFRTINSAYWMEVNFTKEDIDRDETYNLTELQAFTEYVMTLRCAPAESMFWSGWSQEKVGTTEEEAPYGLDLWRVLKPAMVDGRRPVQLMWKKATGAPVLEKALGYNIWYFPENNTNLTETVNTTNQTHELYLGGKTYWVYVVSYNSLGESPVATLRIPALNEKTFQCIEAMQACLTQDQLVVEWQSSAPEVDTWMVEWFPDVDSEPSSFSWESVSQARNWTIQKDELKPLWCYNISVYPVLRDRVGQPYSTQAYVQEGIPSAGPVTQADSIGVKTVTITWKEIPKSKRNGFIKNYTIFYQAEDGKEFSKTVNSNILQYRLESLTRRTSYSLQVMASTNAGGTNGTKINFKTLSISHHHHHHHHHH

Substance canine IL-31 (ligand) came in with an EC50 of 0.55 ng/mL.

What is called EC50 is the concentration needed to bring the measured effect to its halfway point. Higher therefore signals a less potent agent.
